Target: T1, human C5a receptor (C5aR) on purified human neutrophils (human, UniProt P21730 1-350)
T1 construct: whole, on cells
T1 sequence (looked up): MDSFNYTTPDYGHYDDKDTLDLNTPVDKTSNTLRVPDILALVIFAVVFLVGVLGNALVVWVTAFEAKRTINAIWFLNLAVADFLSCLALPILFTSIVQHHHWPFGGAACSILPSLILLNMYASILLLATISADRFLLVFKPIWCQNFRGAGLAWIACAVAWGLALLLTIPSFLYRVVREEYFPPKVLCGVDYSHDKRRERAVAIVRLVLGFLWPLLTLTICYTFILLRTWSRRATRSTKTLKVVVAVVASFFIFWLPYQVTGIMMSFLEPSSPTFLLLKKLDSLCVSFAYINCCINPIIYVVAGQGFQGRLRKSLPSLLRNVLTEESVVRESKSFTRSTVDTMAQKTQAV
Assay: displacement of 125I-C5a from purified human neutrophils by unlabeled recombinant human C5a
Procedure: MAb137-26 was serially diluted in 1.5 ml Eppendorf centrifuged tubes with a binding buffer (1% BSA in RPMI1640 medium) to give final concentrations ranging from 640 nM to 0.04 nM. […] Purified recombinant human C5a (Sigma, St. Louis, Mo. was used as positive control, whereas an isotype-matched irrelevant monoclonal antibody was used as negative control. For the maximum binding of ¹²⁵I-C5a, 36 μl of the binding buffer without the antibodies or C5a was used instead. Fifty microliters of the neutrophil suspension was added to each tube for incubation on ice. At the end of the 40-minute incubation period, the mixture from each tube was transferred to the top of 800 μl of a separation buffer (6% BSA in PBS) in another Eppendorf tube. The tubes were than centrifuged at 2000×g for 3 minutes at room temperature. After the supernatant was aspirated, the cell pellet was re-suspended in 0.5 ml of de-ionized water to lyse the cells. The cell lysate was then mixed with 3 ml of Ultima Gold scintillation fluid (Packard Instrument, Meriden, Conn.) for radioactive counting. The percent inhibition of ¹²⁵I-C5a binding is defined as: [Cpmₘₐₓ−Cpmbkg]−[Cpmca−Cpmbkg]/[Cpmₘₐₓ−Cpmbkg]×100 where: Cpmₘₐₓ=maximum count per minute without competing agents; Cpmbkg=background cpm without addition of ¹²⁵I-C5a; and Cpmca=cpm with competing agents.

IC50: 30 nM
B1: human C5a (ligand, UniProt P01031 678-751, looked up)
chain: TLQKKIEEIAAKYKHSVVKKCCYDGACVNNDETCEQRAARISLGPRCIKAFTECCVVASQLRANISHKDMQLGR
notes: domain: C5a; Bought recombinant protein; also called recombinant C5a (Sigma); purified recombinant human C5a

— patent publication US20080118508A1 (published 2008)
